Measured values taken from article PMC11407943, “Cdc14 phosphatases use an intramolecular pseudosubstrate motif to stimulate and regulate catalysis” (The Journal of Biological Chemistry, 2024).

B1: ScCdc14^1-449 (Saccharomyces cerevisiae S288C) (protein)
chain: MRRSVYLDNTIEFLRGRVYLGAYDYTPEDTDELVFFTVEDAIFYNSFHLDFGPMNIGHLYRFAVIFHEILNDPENANKAVVFYSSASTRQRANAACMLCCYMILVQAWTPHQVLQPLAQVDPPFMPFRDAGYSNADFEITIQDVVYGVWRAKEKGLIDLHSFNLESYEKYEHVEFGDFNVLTPDFIAFASPQEDHPKGYLATKSSHLNQPFKSVLNFFANNNVQLVVRLNSHLYNKKHFEDIGIQHLDLIFEDGTCPDLSIVKNFVGAAETIIKRGGKIAVHCKAGLGRTGCLIGAHLIYTYGFTANECIGFLRFIRPGMVVGPQQHWLYLHQNDFREWKYTTRISLKPSEAIGGLYPLISLEEYRLQKKKLKDDKRVAQNNIEGELRDLTMTPPSNGHGALSARNSSQPSTANNGSNSFKSSAVPQTSPGQPRKGQNGSNTIEDINNN
B2: ScCdc14^S429E (Saccharomyces cerevisiae S288C; S429E) (protein)
chain: MRRSVYLDNTIEFLRGRVYLGAYDYTPEDTDELVFFTVEDAIFYNSFHLDFGPMNIGHLYRFAVIFHEILNDPENANKAVVFYSSASTRQRANAACMLCCYMILVQAWTPHQVLQPLAQVDPPFMPFRDAGYSNADFEITIQDVVYGVWRAKEKGLIDLHSFNLESYEKYEHVEFGDFNVLTPDFIAFASPQEDHPKGYLATKSSHLNQPFKSVLNFFANNNVQLVVRLNSHLYNKKHFEDIGIQHLDLIFEDGTCPDLSIVKNFVGAAETIIKRGGKIAVHCKAGLGRTGCLIGAHLIYTYGFTANECIGFLRFIRPGMVVGPQQHWLYLHQNDFREWKYTTRISLKPSEAIGGLYPLISLEEYRLQKKKLKDDKRVAQNNIEGELRDLTMTPPSNGHGALSARNSSQPSTANNGSNSFKSSAVPQTEPGQPRKGQNGSNTIEDINNN
B3: hCdc14B^1-411 (Homo sapiens) (protein)
chain: DRLCFAILYSRPKSASNVHYFSIDNELEYENFYADFGPLNLAMVYRYCCKINKKLKSITMLRKKIVHFTGSDQRKQANAAFLVGCYMVIYLGRTPEEAYRILIFGETSYIPFRDAAYGSCNFYITLLDCFHAVKKAMQYGFLNFNSFNLDEYEHYEKAENGDLNWIIPDRFIAFCGPHSRARLESGYHQHSPETYIQYFKNHNVTTIIRLNKRMYDAKRFTDAGFDHHDLFFADGSTPTDAIVKEFLDICENAEGAIAVHCKAGLGRTGTLIACYIMKHYRMTAAETIAWVRICRPGSVIGPQQQFLVMKQTNLWLEGDYFRQKLKGQENGQHRAAFSKLLSGVDDISINGVENQDQQEPEPYSDDDEINGVTQGDRLRALKSRRQSKTNAIPLT
notes: codons 1-411; N-terminal GST; expressed in E. coli
B4: hCdc14B^Q390A (Homo sapiens; Q390A) (protein)
chain: MSREGAGAALVAEVIKDRLCFAILYSRPKSASNVHYFSIDNELEYENFYADFGPLNLAMVYRYCCKINKKLKSITMLRKKIVHFTGSDQRKQANAAFLVGCYMVIYLGRTPEEAYRILIFGETSYIPFRDAAYGSCNFYITLLDCFHAVKKAMQYGFLNFNSFNLDEYEHYEKAENGDLNWIIPDRFIAFCGPHSRARLESGYHQHSPETYIQYFKNHNVTTIIRLNKRMYDAKRFTDAGFDHHDLFFADGSTPTDAIVKEFLDICENAEGAIAVHCKAGLGRTGTLIACYIMKHYRMTAAETIAWVRICRPGSVIGPQQQFLVMKQTNLWLEGDYFRQKLKGQENGQHRAAFSKLLSGVDDISINGVENQDQQEPEPYSDDDEINGVTAGDRLRALKSRRQSKTNAIPLT
notes: as for B3
B5: ScCdc14^1-374 (Saccharomyces cerevisiae S288C) (protein)
chain: MRRSVYLDNTIEFLRGRVYLGAYDYTPEDTDELVFFTVEDAIFYNSFHLDFGPMNIGHLYRFAVIFHEILNDPENANKAVVFYSSASTRQRANAACMLCCYMILVQAWTPHQVLQPLAQVDPPFMPFRDAGYSNADFEITIQDVVYGVWRAKEKGLIDLHSFNLESYEKYEHVEFGDFNVLTPDFIAFASPQEDHPKGYLATKSSHLNQPFKSVLNFFANNNVQLVVRLNSHLYNKKHFEDIGIQHLDLIFEDGTCPDLSIVKNFVGAAETIIKRGGKIAVHCKAGLGRTGCLIGAHLIYTYGFTANECIGFLRFIRPGMVVGPQQHWLYLHQNDFREWKYTTRISLKPSEAIGGLYPLISLEEYRLQKKKLKD
B6: ScCdc14^P433A/K435A (Saccharomyces cerevisiae S288C; K435A/P433A) (protein)
chain: MRRSVYLDNTIEFLRGRVYLGAYDYTPEDTDELVFFTVEDAIFYNSFHLDFGPMNIGHLYRFAVIFHEILNDPENANKAVVFYSSASTRQRANAACMLCCYMILVQAWTPHQVLQPLAQVDPPFMPFRDAGYSNADFEITIQDVVYGVWRAKEKGLIDLHSFNLESYEKYEHVEFGDFNVLTPDFIAFASPQEDHPKGYLATKSSHLNQPFKSVLNFFANNNVQLVVRLNSHLYNKKHFEDIGIQHLDLIFEDGTCPDLSIVKNFVGAAETIIKRGGKIAVHCKAGLGRTGCLIGAHLIYTYGFTANECIGFLRFIRPGMVVGPQQHWLYLHQNDFREWKYTTRISLKPSEAIGGLYPLISLEEYRLQKKKLKDDKRVAQNNIEGELRDLTMTPPSNGHGALSARNSSQPSTANNGSNSFKSSAVPQTSPGQARAGQNGSNTIEDINNN
B7: ScCdc14^Q432A (Saccharomyces cerevisiae S288C; Q432A) (protein)
chain: MRRSVYLDNTIEFLRGRVYLGAYDYTPEDTDELVFFTVEDAIFYNSFHLDFGPMNIGHLYRFAVIFHEILNDPENANKAVVFYSSASTRQRANAACMLCCYMILVQAWTPHQVLQPLAQVDPPFMPFRDAGYSNADFEITIQDVVYGVWRAKEKGLIDLHSFNLESYEKYEHVEFGDFNVLTPDFIAFASPQEDHPKGYLATKSSHLNQPFKSVLNFFANNNVQLVVRLNSHLYNKKHFEDIGIQHLDLIFEDGTCPDLSIVKNFVGAAETIIKRGGKIAVHCKAGLGRTGCLIGAHLIYTYGFTANECIGFLRFIRPGMVVGPQQHWLYLHQNDFREWKYTTRISLKPSEAIGGLYPLISLEEYRLQKKKLKDDKRVAQNNIEGELRDLTMTPPSNGHGALSARNSSQPSTANNGSNSFKSSAVPQTSPGAPRKGQNGSNTIEDINNN
B8: ScCdc14^Q432E (Saccharomyces cerevisiae S288C; Q432E) (protein)
chain: MRRSVYLDNTIEFLRGRVYLGAYDYTPEDTDELVFFTVEDAIFYNSFHLDFGPMNIGHLYRFAVIFHEILNDPENANKAVVFYSSASTRQRANAACMLCCYMILVQAWTPHQVLQPLAQVDPPFMPFRDAGYSNADFEITIQDVVYGVWRAKEKGLIDLHSFNLESYEKYEHVEFGDFNVLTPDFIAFASPQEDHPKGYLATKSSHLNQPFKSVLNFFANNNVQLVVRLNSHLYNKKHFEDIGIQHLDLIFEDGTCPDLSIVKNFVGAAETIIKRGGKIAVHCKAGLGRTGCLIGAHLIYTYGFTANECIGFLRFIRPGMVVGPQQHWLYLHQNDFREWKYTTRISLKPSEAIGGLYPLISLEEYRLQKKKLKDDKRVAQNNIEGELRDLTMTPPSNGHGALSARNSSQPSTANNGSNSFKSSAVPQTSPGEPRKGQNGSNTIEDINNN
B9: ScCdc14^Q432N (Saccharomyces cerevisiae S288C; Q432N) (protein)
chain: MRRSVYLDNTIEFLRGRVYLGAYDYTPEDTDELVFFTVEDAIFYNSFHLDFGPMNIGHLYRFAVIFHEILNDPENANKAVVFYSSASTRQRANAACMLCCYMILVQAWTPHQVLQPLAQVDPPFMPFRDAGYSNADFEITIQDVVYGVWRAKEKGLIDLHSFNLESYEKYEHVEFGDFNVLTPDFIAFASPQEDHPKGYLATKSSHLNQPFKSVLNFFANNNVQLVVRLNSHLYNKKHFEDIGIQHLDLIFEDGTCPDLSIVKNFVGAAETIIKRGGKIAVHCKAGLGRTGCLIGAHLIYTYGFTANECIGFLRFIRPGMVVGPQQHWLYLHQNDFREWKYTTRISLKPSEAIGGLYPLISLEEYRLQKKKLKDDKRVAQNNIEGELRDLTMTPPSNGHGALSARNSSQPSTANNGSNSFKSSAVPQTSPGNPRKGQNGSNTIEDINNN

The proteins below were run on Cc1cc(=O)oc2c(F)c(OP(=O)(O)O)c(F)cc12 (assay: purified protein, by the assay type). Details: pH 7.5; 30.0 °C.
Experimental: Data from velocity versus substrate concentration plots were fit with the Michaelis–Menten equation in GraphPad Prism (https://www.graphpad.com/) to determine steady-state kinetic parameters kcat and KM. For trans peptide stimulation assays, DiFMUP was used at a single concentration well above the measured KM for each enzyme. […] (where pS is phosphoSer), were assayed in Cdc14 reaction buffer with Biomol Green (Enzo Life Science) detection of released inorganic phosphate as previously described ([29]). Data were fit with a modified Michaelis–Menten equation including a substrate inhibition term in Prism.
After removing the Cdk1-bound affinity resin, we measured effects on Cdc14 steady-state kinetic parameters with DiFMUP.
Values are means of at least six independent measurements and error bars are SDs.
B1 was tested, and the Km was 25 µM. With B2 the Km was 3.3 µM.

Each protein was assayed on Cc1cc(=O)oc2c(F)c(OP(=O)(O)O)c(F)cc12 (assay: not given). Details: pH 7.5; 30.0 °C.
Format: biochemical
Excerpt: Enzym e kcat (sec-1) KM (µM)
With B1 the Km was 8.4 µM. B3 showed a Km of 46 µM. For B4, the Km was 2.88 µM. Protein B5 has a Km of 0.76 µM. B6 gave a Km of 1.0 µM. With B7 the Km was 0.72 µM. B8 gave a Km of 1.11 µM. Work on B9 yielded a Km of 0.92 µM.
